Experimental findings from patent US20240360179A1 are described below.

Chain of beta-catenin fused to HaloTag (NanoBRET acceptor construct), expressed in HEK293 cells (P35222 whole entry, the tested form may be a part): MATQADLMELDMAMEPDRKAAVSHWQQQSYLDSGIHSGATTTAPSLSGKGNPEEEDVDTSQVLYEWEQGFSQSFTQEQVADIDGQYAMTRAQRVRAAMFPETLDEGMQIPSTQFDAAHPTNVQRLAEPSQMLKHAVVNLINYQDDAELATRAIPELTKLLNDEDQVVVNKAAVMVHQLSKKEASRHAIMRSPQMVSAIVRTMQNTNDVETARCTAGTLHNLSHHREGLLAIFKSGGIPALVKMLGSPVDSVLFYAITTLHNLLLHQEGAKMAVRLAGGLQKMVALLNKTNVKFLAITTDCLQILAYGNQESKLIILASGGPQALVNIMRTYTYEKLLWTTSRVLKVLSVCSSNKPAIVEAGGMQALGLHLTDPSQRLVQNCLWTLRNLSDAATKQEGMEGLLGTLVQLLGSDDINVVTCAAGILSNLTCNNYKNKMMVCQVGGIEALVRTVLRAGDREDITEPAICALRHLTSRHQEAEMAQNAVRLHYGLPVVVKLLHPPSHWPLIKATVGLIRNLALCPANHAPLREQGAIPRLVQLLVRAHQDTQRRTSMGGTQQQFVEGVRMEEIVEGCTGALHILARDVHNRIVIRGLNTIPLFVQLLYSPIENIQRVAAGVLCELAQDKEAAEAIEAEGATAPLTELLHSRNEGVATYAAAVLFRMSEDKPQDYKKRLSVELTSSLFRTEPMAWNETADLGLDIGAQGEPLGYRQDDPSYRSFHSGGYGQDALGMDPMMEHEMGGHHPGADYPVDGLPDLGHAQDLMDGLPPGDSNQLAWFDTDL

In the first experiment the target is beta-catenin fused to HaloTag (Bcat-Halo NanoBRET construct), expressed in HEK293 cells (UniProt P35222). Nature of the experiment: NanoBRET Abs IC50 in HEK293 cells, beta-catenin-HaloTag against TCF4-NanoLuc.
Chain of beta-catenin fused to HaloTag (Bcat-Halo NanoBRET construct), expressed in HEK293 cells (P35222 whole entry, the tested form may be a part): as above
As a reminder, the IC50 is the concentration that gives 50% inhibition. A lower IC50 goes with inhibition by little substance. For “Ac-PL3-Asp-Npg-B5-Asp-2COOHF-Aib-Ala-Phe-Lys*3-PyrS2-2F3MeF-BztA-GlnR*3-Ala-NH2 (peptide)”, the IC50 was under 3 µM.
As for “Ac-PL3-Asp-Npg-B5-Asp-3F2COOHF-Aib-Ala-Phe-Lys*3-PyrS2-2F3MeF-BztA-GlnR*3-Ala-NH2 (peptide)”, the half-inhibitory concentration (IC50) is over 3 µM.
On the same count and under the same terms, with “Ac-PL3-Asp-Npg-B5-Asp-4F3Me2COOHF-Aib-Ala-Phe-Lys*3-PyrS2-2F3MeF-BztA-GlnR*3-Ala-NH2 (peptide)” the figure was over 3 µM; with “Ac-PL3-Asp-Npg-B5-Asp-4F3Me3COOHF-Aib-Ala-Phe-Lys*3-PyrS2-2F3MeF-BztA-GlnR*3-Ala-NH2 (peptide)”, under 3 µM.
Substance “Ac-PL3-Asp-Npg-B5-Asp-5F3Me2COOHF-Aib-Ala-Phe-Lys*3-PyrS2-2F3MeF-BztA-GlnR*3-Ala-NH2 (peptide)” displayed an IC50 of over 3 µM.
On to “Ac-PL3-Asp-Npg-B5-Asp-Ala-Aib-Ala-Phe-Lys*3-PyrS2-2F3MeF-BztA-GlnR*3-Ala-NH2 (peptide)”, for which the IC50 was over 3 µM.
Regarding “Ac-PL3-Asp-Npg-B5-Asp-Asn-Aib-Ala-Phe-Lys*3-PyrS2-2F3MeF-BztA-GlnR*3-Ala-NH2 (peptide)”, the IC50 is over 3 µM.
Still for that read-out and setting: with “Ac-PL3-Asp-Npg-B5-Asp-Asp-Aib-Ala-Phe-Lys*3-PyrS2-2F3MeF-BztA-GlnR*3-Ala-NH2 (peptide)” the figure was over 3 µM; with “Ac-PL3-Asp-Npg-B5-Asp-Gln-Aib-Ala-Phe-Lys*3-PyrS2-2F3MeF-BztA-GlnR*3-Ala-NH2 (peptide)”, over 3 µM; with “Ac-PL3-Asp-Npg-B5-Asp-Glu-Aib-Ala-Phe-Lys*3-PyrS2-2F3MeF-BztA-GlnR*3-Ala-NH2 (peptide)”, over 3 µM.
“Ac-PL3-Asp-Npg-B5-Asp-Ser-Aib-Ala-Phe-Lys*3-PyrS2-2F3MeF-BztA-GlnR*3-Ala-NH2 (peptide)”: the IC50 was over 3 µM.
On the same count and under the same terms, the figure for “Ac-PL3-Asp-Npg-B5-Asp-aThr-Aib-Ala-Phe-Lys*3-PyrS2-2F3MeF-BztA-GlnR*3-Ala-NH2 (peptide)” is over 3 µM.

The target of a further experiment is full-length B-Catenin (Uniprot ID P35222) (human). Nature of the experiment: competition fluorescence polarization. (In general: Polarisation of emitted light reports the rotation of a fluorescent probe.)
Chain of full-length B-Catenin (Uniprot ID P35222) (human) (P35222 whole entry): as the sequence (P35222 whole entry, the tested form may be a part) above
The substance “1PydoneAc-PL3-Asp-Npg-B5-Asp-3COOHF-Aib-Ala-Phe-Lys*3-PyrS2-3Thi-BztA-GlnR*3-Ala-NH2 (peptide)” gave an IC50 of under 0.05 µM.
As to “1Pyrazole Ac-PL3-Asp-Npg-B5-Asp-3COOHF-Aib-Ala-Phe-Lys*3-PyrS2-3Thi-BztA-GlnR*3-Ala-NH2 (peptide)”, the IC50 is under 0.05 µM.
Turning to “3Py Ac-PL3-Asp-Npg-B5-Asp-3COOHF-Aib-Ala-Phe-Lys*3-PyrS2-3Thi-BztA-GlnR*3-Ala-NH2 (peptide)”, the IC50 was under 0.05 µM.
Still for that read-out and setting: with “3PyPrpc-PL3-Asp-Npg-B5-Asp-3COOHF-Aib-Ala-Phe-Lys*3-PyrS2-3Thi-BztA-GlnR*3-Ala-NH2 (peptide)” the figure was under 0.05 µM; with “4PyPrpc-PL3-Asp-Npg-B5-Asp-3COOHF-Aib-Ala-Phe-Lys*3-PyrS2-3Thi-BztA-GlnR*3-Ala-NH2 (I-1070) (peptide)”, under 0.05 µM.
“4PyPrpc-PL3-Asp-Npg-B5-Asp-3COOHF-Aib-Ala-Phe-Lys*3-PyrS2-3Thi-BztA-GlnR*3-Ala-NH2 (I-1071) (peptide)” gave an IC50 of under 0.05 µM.
In turn, “5PymAc-PL3-Asp-Npg-B5-Asp-3COOHF-Aib-Ala-Phe-Lys*3-PyrS2-3Thi-BztA-GlnR*3-Ala-NH2 (peptide)” registered a half-inhibitory concentration (IC50) of under 0.05 µM.
The substance “123TriAc-PL3-Asp-Npg-B5-Asp-3COOHF-Aib-Ala-Phe-Lys*3-PyrS2-3Thi-BztA-GlnR*3-Ala-NH2 (peptide)” showed an IC50 of under 0.05 µM.

The target of the next experiment is full-length beta-catenin (Uniprot ID P35222) (human). Nature of the experiment: competition fluorescence polarization.
Consider “I-376: Ac-PL3-Asp-Npg-B5-Asp-3COOHF-Aib-Ala-Phe-[oXyl]Cys-PyrS2-2F3MeF-BztA-Cys-Ala-NH2 (peptide)”, for which the IC50 turned out to be 0.22 µM.
On the same count and under the same terms, with “I-377: Ac-PL3-Asp-Npg-B5-Asp-3COOHF-Aib-Ala-Phe-[pXyl]Cys-PyrS2-2F3MeF-BztA-Cys-Ala-NH2 (peptide)” the figure was 0.093 µM; with “I-566: Ac-PL3-Asp-Npg-B5-Asp-3COOHF-Aib-Ala-Phe-[2_6-naph]Cys-PyrS2-3Thi-BztA-Cys-Ala-NH2 (peptide)”, 0.058 µM; with “I-567: Ac-PL3-Asp-Npg-B5-Asp-3COOHF-Aib-Ala-Phe-[3_3-biph]Cys-PyrS2-3Thi-BztA-Cys-Ala-NH2 (peptide)”, 0.12 µM.

A further experiment has as its target beta-catenin fused to HaloTag (NanoBRET acceptor construct), expressed in HEK293 cells (UniProt P35222). As to the kind of experiment: NanoBRET in HEK293 cells, beta-catenin-HaloTag against TCF4-NanoLuc. In general terms: BRET reads energy transfer from a luciferase to a nearby fluorophore.
On to Peptide A, for which the IC50 was 3 µM.

In another experiment the target is endogenous beta-catenin in cells (DLD1, HAP1 WT) (human). Nature of the experiment: cell-based or functional assay.
Chain of endogenous beta-catenin in cells (DLD1, HAP1 WT) (human) (P35222 2-781): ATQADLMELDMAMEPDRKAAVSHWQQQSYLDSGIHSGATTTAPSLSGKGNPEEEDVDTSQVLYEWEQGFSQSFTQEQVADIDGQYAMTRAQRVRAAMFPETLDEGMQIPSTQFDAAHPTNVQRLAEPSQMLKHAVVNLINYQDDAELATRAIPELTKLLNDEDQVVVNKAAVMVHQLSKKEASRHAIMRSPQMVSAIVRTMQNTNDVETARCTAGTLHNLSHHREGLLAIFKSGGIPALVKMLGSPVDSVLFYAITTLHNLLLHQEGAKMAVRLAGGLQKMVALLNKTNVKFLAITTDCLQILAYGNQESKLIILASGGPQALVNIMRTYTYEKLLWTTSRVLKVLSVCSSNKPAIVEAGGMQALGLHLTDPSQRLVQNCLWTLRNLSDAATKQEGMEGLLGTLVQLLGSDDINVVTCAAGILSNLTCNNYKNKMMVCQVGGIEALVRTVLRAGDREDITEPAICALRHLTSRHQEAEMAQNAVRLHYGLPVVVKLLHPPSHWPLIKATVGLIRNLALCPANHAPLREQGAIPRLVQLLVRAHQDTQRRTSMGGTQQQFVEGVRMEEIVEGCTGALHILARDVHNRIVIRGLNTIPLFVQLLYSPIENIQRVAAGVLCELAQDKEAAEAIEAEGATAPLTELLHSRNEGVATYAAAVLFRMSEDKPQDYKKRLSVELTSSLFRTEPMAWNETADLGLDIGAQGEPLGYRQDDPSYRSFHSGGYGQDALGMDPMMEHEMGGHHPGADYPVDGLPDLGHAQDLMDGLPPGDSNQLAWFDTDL
Peptide A returned an AXIN2 expression in DLD1 cells, IC50 of 9.3 µM and an SP5 expression in DLD1 cells, IC50 of 9 µM.

For a further experiment, the target named is beta-catenin in DLD1 TCF reporter cells (UniProt P35222). Nature of the experiment: cell-based or functional assay.
Chain of beta-catenin in DLD1 TCF reporter cells (P35222 2-781 limits assumed): as the sequence (P35222 2-781) above
For the substance “C-1: Ac-PL3-Asp-Npg-B5-Asp-3COOHF-Ala-Ala-Phe-Leu-PyrS2-2F3MeF-BztA-Gln-NH2 (peptide)”, the beta-catenin TCF4 DLD1 cell reporter assay IC50 amounted to 9.8 µM.
The same measure, in the same setting: the figure for “I-566: Ac-PL3-Asp-Npg-B5-Asp-3COOHF-Aib-Ala-Phe-[2_6-naph]Cys-PyrS2-3Thi-BztA-Cys-Ala-NH2 (peptide)” is over 20 µM; for “I-567: Ac-PL3-Asp-Npg-B5-Asp-3COOHF-Aib-Ala-Phe-[3_3-biph]Cys-PyrS2-3Thi-BztA-Cys-Ala-NH2 (peptide)” it is over 20 µM.

In the next experiment the target is full-length B-Catenin (Uniprot ID P35222) (human). As to the kind of experiment: competition fluorescence polarization, displacement of 5FAM-TCF4.
For the substance “Ac-PL3-Asp-Npg-B5-Asp-5F3Me3COOHF-Aib-Ala-Phe-Lys*3-PyrS2-2F3MeF-BztA-GlnR*3-Ala-NH2 (peptide)”, the IC50 is under 0.05 µM.
Take “Ac-PL3-Asp-Npg-B5-Asp-dGlu-Aib-Ala-Phe-Lys*3-PyrS2-2F3MeF-BztA-GlnR*3-Ala-NH2 (peptide)”: the IC50 is under 0.05 µM.
